Data set [1] is described as follows: Dicamba decarboxylase activity / product analysis with purified His-tag protein (14C assay and product detection of Example 1). As to conditions: for dicamba decarboxylase activity: statement of the description; for other products (than 2,5-DCA) / reaction products detected: purified protein, dicamba substrate; for dicamba decarboxylase activity relative to parent sequence: computationally designed variants. Type of data set: biochemical. As for the experimental part:
To obtain purified protein for activity assays, IPTG-induced cells were harvested by centrifugation at 7,000 rpm for 10 mins Cell pellet from 50 mL of cell culture was frozen and thawed twice and then lysed in 8004 lysis buffer consisting of 50 mM potassium phosphate buffer (pH7.0), 50 μM ZnSO4, 5% EG, 50 mM KCl, 1 mM DTT, 0.2 mg/ml lysozyme, 1/200 protease inhibitor cocktail (EMD set3, EDTA free), and 1/2,000 endonuclease. Lysate was then centrifuged at 13,000 rpm for 45 min at 4° C. Supernatant was loaded onto 200 μL Ni-NTA columns pre-equilibrated with 10 mM His Buffer containing 25 mM potassium phosphate buffer pH7, 50 μM ZnSO4, 5% EG, 200 mM KCl, and 10 mM histidine. The columns were let sit at 4° C. until the entire supernatant passed through. Each column was then washed with 200 ul 10 mM His Buffer twice and then 4 times with 800 ul loading buffer consisting of 25 mM potassium phosphate buffer pH7, 50 μM ZnSO4, 5% EG, 200 mM KCl. Protein was eluted with 1504 of Elution Buffer consisting of 25 mM potassium phosphate buffer pH7, 50 μM ZnSO4, 5% EG, 100 mM KCl, 100 mM histidine, 10% glycerol. The protein concentration was measured by Bradford assay. Purified protein was used for dicamba decarboxylase activity measurement as described in Example 1. Enzyme kinetic characterization of selected dicamba decarboxylases was determined through GC/MS measurement of 2,5-DCP or PEPC coupled assay as described in Example 1.

Data set [2] is described as follows: Saturation mutagenesis of SEQ ID NO:109: dicamba decarboxylation activity of point mutants (CO2 released), fold of backbone (Tables 7, 8, Megatable 1). The note with it: decarboxylation activity (CO2 released) of point mutant vs unmutated backbone protein; backbone SEQ ID NO: 109.
A short description of data set [3]: GC/MS detection of decarboxylation product 2,5-DCA (toluene trapping or head space). Type of data set: biochemical. As to conditions: purified protein, dicamba substrate. As for the experimental part:
Alternatively, dicamba decarboxylase activity can be monitored by measuring decarboxylation products other than CO2 using product detection methods. The decarboxylation product of dicamba, 2,5-dichloro anisole or 2,5-DCA (FIG. 1C), is a volatile compound with a flash point of 21° C. To capture this volatile compound for detection, 140 ul of toluene solution is added on top of 1 ml reaction mixture to form a trapping layer in a 1.5 ml eppendorf tube. […] The reaction is kept still at room temperature overnight before being vortex mixed and centrifuged at 14,000 rpm for 15 minutes. The top toluene phase is carefully removed using a micropipette and transferred into a 12×32 mm polypropylene vial (Vial 11 mm) from MicroLiter Analytical Supplies, Inc. (catalog number 11-5300-100). The vial is sealed with Crimp seal (11 mm with FEP/Nat Rubber) from MicroLiter Analytical Supplies, Inc. (catalog number 11-0020A) using a E-Z Crimper™ 11 mm from Wheaton Inc. lul of the toluene mixture is taken from the sealed vials and injected in splitless mode into a GC/MS system for sample analysis (Agilent GC/MS system with a 6890A GC, a 5973N MSD and a CTC CombiPAL auto-sampler or with a 7890A GC, a 5975C MSD and an Agilent GC Sampler 80 auto-sampler). The GC parameters are: Agilent DB-5MS column (30 m length, 0.25 mm diameter, 0.25 um film) or equivalent; The GC inlet temperature, 250° C.; Carry gas, helium in constant flow mode (1.2 mL/min); The GC oven temperature program, initial temperature at 70° C. for 1 min, ramping to 200° C. at 15° C./min, and then ramping to 250° C. at 30° C./min. MS data acquisition is done in SIM (selected ion monitoring) mode, monitoring the positive ion at M/Z 176 for the molecular ion of […]. The solvent delay for MS acquisition is set at 4 min. Another method for detection of 2,5-DCA is a head-space GC/MS method. Briefly, reaction mixtures in 500 ul reaction volume are prepared in 1.5 ml 12×32 mm glass vials (Microliter Analytical Supplies, Cat#11-1200) for head space analysis. Glass vials are sealed with magnetic cap from MicroLiter Analytical Supplies, Inc. (catalog number 11-0030AT) using a E-Z Crimper™ 11 mm from Wheaton Industries Inc. The reaction is carried out at room temperature for various amount of time and stopped by heating at 95° C. for 5 min. The reaction vial is transferred to a agitator for incubation at 80° C. for 5 min at 500 rpm. With a syringe preheated at 80° C., 1000 uL of head space is injected with sample fill speed at 100 uL/sec. GC/MS parameters for headspace analysis are the same as for liquid sample analysis.

B1: 100 (protein, listed as Reinekea blandensis)
chain: MAIIDCHGHYTTTPKGVEDYRNAQKAAVAKDPSFKGEKGQVVVSDDEIRESIENNQLKMQRERGTDLTIFSPRASWMGHHIGNEYTSQFWTEHQNDLIRRVCDLFPKNFAPVAQLPQSPGVDPAKSVPEIVRTVEQMGFIGINLNPDPSGGYWKDTSLADRAFYPIYEKMVEYDIPAMIHVSAACNDCFHTTGSHYLGADTTGFQQLIMSDVFKDFPSLKIIIPHGGGAVPYHWGRFRGLMQDQGYAPLEESALKNIYFDTCVYHQRGIDLLLDIVPTQNILFASEMIGAVRGIDPETGHNFDDTKRYIDNNTALNAEEKAMIFEGNARRVFSRLKTD
As to B1, the dicamba decarboxylase activity result in data set [1] is “Neither of the native proteins have dicamba decarboxylase activity”. The “Fold Activity” value in data set [2] is reported as 2.5 fold.

B2: 118 (protein)
chain: MAKKPRIDMHSHFFPRISEQEAAKFDANHAPWLQVSAKGDTGSIMMGKNNFQPVYQALWDPAFRIEEMDAQGVDVQVTCATPVMFGYTWEANKAAQWAERMNDFALEFAAHNPQRIKVLAQVPLQDLDLACKEASRAVAAGHLGIQIGNHLGDKDLDDATLEAFLTHCANEDIPILVHGTDMMGGQRMKKWGLPWLVALAAEVQLAILSLILSGAFERIPKSLKICFSHGGGSFAFLLGLVDEAWRHVDIVREDCPRPPSEYVDRFFVDSVGNPGALELLVSVMGEDRVMLGSDYPHTTGEQKIGGLVLSSNLGESAKDKIISGNASKFFNINV
modifications: Dicamba decarboxylase variant clone: DC.5.033
For the molecule B2, in data set [1], the “other products (than 2,5-DCA)” value is reported as “not detected” and the dicamba decarboxylase activity result was “shown herein to have dicamba decarboxylase activity”. Also, the “minor decarboxylation product 2,5-DCA” value in data set [3] is listed as “detected”. Besides, in data set [2], the “Fold Activity” value is 1.4 fold.

B3: 119 (protein)
chain: MAKKPRIDMHSHFFPRISEQEAAKFDANHAPWLQVSAKGDTGSIMMGKNNFQPVYQALWDPAFRIEEMDAQGVDVQVTCATPVMFGYTWEANKAAQWAERMNDFALEFAAHNPQRIKVLAQVPLQDLDLACKEASRAVAAGHLGIQIGNHLGDKDLDDATLEAFLTHCANEDIPILVHGWDMMGGQRMKKWGLYWLVAHHAEVQLAILSLILSGAFERIPKSLKICFSHGGGSFAFTLGWVDEAWRHVDIVREDCPRPPSEYVDRFFVDSVGNPGALELLVSVMGEDRVMLGSDYPLTTGEQKIGGLVLSSNLGESAKDKIISGNASKFFNINV
modifications: Dicamba decarboxylase variant clone:DC.5.034
Consider B3, for which, in data set [1], the “other products (than 2,5-DCA)” value is reported as “not detected” and the dicamba decarboxylase activity result is listed as “shown herein to have dicamba decarboxylase activity”. For the same molecule, in data set [3], the “minor decarboxylation product 2,5-DCA” value is reported as “detected”. For the same molecule, the “Fold Activity” value in data set [2] was 1.6 fold.

B4: 112 (protein)
chain: MAQGKVALEEHFAIPETLQDSAGFVPGDYWKELVHRLLDIQDTRLKLMDAHGIETMILSLNAPAVQAIPDRRKAIEIARRANDVLAEECAKRPDRFLAFAALPLQDPDAATEELQRCVNDLGFVGALVNGFSQEGDGQTPLYYDLPQYRPFWGEVEKLDVPFYLHPRNPLPQDSRIYDGHPWLLGPTWAFAQETAVHALRLMASGLFDEHPRLNIILGHMGEGLPYMMWRIDHRVAWVKLPPRYPAKRRFMDYFNENFHITTSGNFRTQTLIDAILEIGADRILFSTDWPFENIDHASDWFNATSIAEADRVKIGRTNARRLFKLDGA
modifications: Dicamba decarboxylase variant clone: DC.4.113
B4: in data set [1], the “dicamba decarboxylase activity relative to parent sequence” value is on record as “displays an increase in dicamba decarboxylase activity”; the reaction products detected entry was “three major products (CO2, 4-chloro-3-methoxy phenol, and 2,5-DCP) detected”. In data set [2], the “Fold Activity” value amounted to 1.2 fold.

B5: 113 (protein)
chain: MAQGKVALEEHFAIPETLQDSAGFVPGDYLKELFHRLLDIQDTRLKLMDAHGIETMILSLNAPAVQAIPDRRKAIEIARRANDVLAEECAKRPDRFLAFAALPLQDPDAATEELQRCVNDLGFVGALVNGFSQEGDGQTPLYYDLPQYRPFWGEVEKLDVPFYLHPRNPLPQDSRIYDGHPWLLGPTWAFAQETAVHALRLMASGLFDEHPRLNIILGHMGEGLPYMMWRIDHRVAWVKLPPRYPAKRRFMDYFNENFHITTSGNFRTQTLIDAILEIGADRILFSTDWPFENIDHASDWFNATSIAEADRVKIGRTNARRLFKLDGA
modifications: Dicamba decarboxylase variant clone: DC.4.114
B5: in data set [1], the “dicamba decarboxylase activity relative to parent sequence” value is reported as “displays an increase in dicamba decarboxylase activity”; the reaction products detected entry is “three major products (CO2, 4-chloro-3-methoxy phenol, and 2,5-DCP) detected”. Moreover, in data set [2], the “Fold Activity” value is 1.4 fold.

B6: 117 (protein)
chain: MAKKPRIDMHSHFFPRISEQEAAKFDANHAPWLQVSAKGDTGSIMMGKNNFRPVYQALWDPAFRIEEMDAQGVDVQVTCATPVMFGYTWEANKAAQWAERMNDFALEFAAHNPQRIKVLAQVPLQDLDLACKEASRAVAAGHLGIQIGNHLGDKDLDDATLEAFLTHCANEDIPILVHPWDMMGGQRMKKWMLPVLVAAPAEVQLAILSLILSGAFERIPKSLKICFAGGGGSFAFLLGIVDLAWRHRDIVREDCPRPPSEYVDRFFVDSLVFNPGALELLVSVMGEDRVMLGSDYPFPTGEQKIGGLVLSSNLGESAKDKIISGNASKFFNINV
modifications: Dicamba decarboxylase variant clone: DC.5.008
Turning to B6, in data set [1], the “other products (than 2,5-DCA)” value was “not detected” and the dicamba decarboxylase activity entry is “shown herein to have dicamba decarboxylase activity”. The “minor decarboxylation product 2,5-DCA” value in data set [3] is reported as “detected”. Besides, the “Fold Activity” value in data set [2] is 1.8 fold.

B7: 95 (protein, listed as Pseudomonas fluorescens)
chain: MAKKPRIDMHSHFFPRISEQEAAKFDANHAPWLQVSAKGDTGSIMMGKNNFRPVYQALWDPAFRIEEMDAQGVDVQVTCATPVMFGYTWEANKAAQWAERMNDFALEFAAHNPQRIKVLAQVPLQDLDLACKEASRAVAAGHLGIQIGNHLGDKDLDDATLEAFLTHCANEDIPILVHPWDMMGGQRMKKWMLPWLVAMPAETQLAILSLILSGAFERIPKSLKICFGHGGGSFAFLLGRVDNAWRHRDIVREDCPRPPSEYVDRFFVDSAVFNPGALELLVSVMGEDRVMLGSDYPFPLGEQKIGGLVLSSNLGESAKDKIISGNASKFFNINV
On to B7, for which the dicamba decarboxylase activity result in data set [1] is reported as “Neither of the native proteins have dicamba decarboxylase activity”. Also, in data set [2], the “Fold Activity” value was 1.4 fold.

B8: 120 (protein)
chain: MAIIDCHGHYTTTPKGVETYRNAQKAAVAKDPSFKYEKGQVVVSDDEIRESIENNQLKMQRERGTDLTIFSPRSTAGGHHIGNEYTSQFWTEHQNDLIRRVCDLFPKNFAPVAQLPQSPGVDPAKSVPEIVRTVEQMGFIGINLNPDPSGGYWKDTSLADRAFYPIYEKMVEYDIPAMIHPRNACNDCFHTTGSHALGADTTGFQQLIMSDVFKDFPSLKIIIPHGGGAVPYHWGRFRGLMQDQGYAPLEESALKNIYFDTCVYHQRGIDLLLDIVPTQNILFASEMIGAVRGIDAETGHNFDDTKRYIDNNTALNAEEKAMIFEGNARRVFSRLKTD
modifications: Dicamba decarboxylase variant clone: DC.12.002
On to B8, for which, in data set [1], the “other products (than 2,5-DCA)” value is reported as “not detected” and the dicamba decarboxylase activity result is “shown herein to have dicamba decarboxylase activity”. Further, the “minor decarboxylation product 2,5-DCA” value in data set [3] is on record as “detected”. In addition, the “Fold Activity” value in data set [2] turned out to be 1.3 fold.

Source of the values: US20160040149A1, “Compositions Having Dicamba Decarboxylase Activity and Methods of Use” (priority 2013, published 2016).
